Laboratory results as given in the DeepSol protein solubility set.

experiment: soluble on expression in E. coli; label from the status in PepcDB or PDB records

Row | Sequence | soluble on expression in E. coli
1 | MEETEFVPHKLTELRVGTLYGPQIYMTSGQGNSGFDYDMAVLFAEYLDVPLKMVPYTNLAELYDALKKNEIDIIAAGMTETPARREHFRLGPPLYRVNQVLVYREGMPAPKDISDLKGKITVIADSSFVETLTQLQKRHPTLVWDQVTDKDNEELLTMIANKEIDYTIADSSSVQINRRYLPVLRSGLVLEEKLNVVWLLPPTHSDGLMSQLLAFWHQEKLAGTLDHLNEKYFGHVKRFDYIDTRAFLRAIETVLPRYRQHFETHAGDLDWRKLAATSYQESHWNPNARSPTGVRGMMMLTQPTAKEIGITNRLDAEESIRGGAAYLRDMINRLPESIPESQRMWFALASYNIGYAHVEDARKLAESMELNPNAWQDLKKVLPLLQKRKYYQKTRYGYARGSEAVHYVDSIRRYYDTLVWVDNQSKQQNSEEVAPSDLTAEETPVPAPGTLSPDKPKLEHHHHHH | soluble
2 | MLKFNEEQQIKDIRGALALRSDVEKVVDQVWTKGFDAVYYIGIGGTYASAMQAVTYANGKSNLPIYVQHAAEYYTTGNKRLTEKSFVILSSVTGTTQEVVQAVQEIKKVGATLFGFIDAKDSLLADLCDYVVTYPAPGTEQIKFFMVADRLMQKNNEFTDYENYYQELEEYLPTGLAEAEKSADAFGLAFAEKHRHDSIHYFIGAGNQWGAVYSYAMCYWEEQSWLRSKSIHAAEFLHGTLEIVDETTPVTLFIGEDEQRPLAERVAKLLPKICANYTIIDSKAYELPGISEKYRGRVVSFLLMHAVTQRIDAHVEKLNCHPLEIRRYYRQFDY | not soluble
3 | MMAQEISNLVKKYNVTWQQTMLRIYDPKETVEFYEKNFGMINIHTYHFNEYNFSLYFLITPPYDEEERKKLPEPNTKESEKYLWNLNTVCLELTYNHNSQEKLSNGNNENDRGFGHIAFNCNDVIEQCDNLFKKNVKFHKLPHETKMKTIGFALDPNNYWIEIVKRSNQVKWKNYKNITNFSQTMIRVKNPEKSLYFYIHILGMKLIHVKHCSDFSLYFLKSNYACAENNKEMIEDQSNKNTNEIYDFNSLKNSYQTDEDYENFKQSWEPVLELTHNHGTEDDDNFSYHNGNTEPRGFGHIGFLVNDLENYCKELETLNVTFKKKVTEGLMKNIAFIYDPDNYVIELIQRDTSFIAK | not soluble
4 | MKLIILEHYSQASEWAAKYIRNRIIQFNPGPEKYFTLGLPTGSTPLGCYKKLIEYYKNGDLSFKYVKTFNMDEYVGLPRDHPESYHSFMWNNFFKHIDIHPENTHILDGNAVDLQAECDAFEEKIKAAGGIELFVGGIGPDGHIAFNEPGSSLVSRTRVKTLAMDTILANARFFDGELTKVPTMALTVGVGTVMDAREVMILITGAHKAFALYKAIEEGVNHMWTVSAFQQHPRTVFVCDEDATLELKVKTVKYFKGLMLVHNKLVDPLYSIKEKETEKSQSSKKPYSD | soluble
5 | MHVNGKVALVTGAAQGIGRAFAEALLLKGAKVALVDWNLEAGVQCKAALDEQFEPQKTLFIQCDVADQQQLRDTFRKVVDHFGRLDILVNNAGVNNEKNWEKTLQINLVSVISGTYLGLDYMSKQNGGEGGIIINMSSLAGLMPVAQQPVYCASKHGIVGFTRSAALAANLMNSGVRLNAICPGFVNTAILESIEKEENMGQYIEYKDHIKDMIKYYGILDPPLIANGLITLIEDDALNGAIMKITTSKGIHFQDYDTTPFQAKTQ | not soluble
6 | MNFLRKIVKNCKDEEIPKPGTPSAPPDDDDLWMPPPEYVPLTQIKGKENVRNFCINGEIKICSPNGYSFRILRHILKSFDNVYSGNRRLIGVVKVVIGLVLSASPVPEGMNWVYKLRRTLIFQWAESHGPLEGEELEYSQEITWDDEAEFVSLQIRVSAKQCHIQGRLWCINMNSKACQLWADMGLKTQQSQEDENTSLLLE | soluble
7 | MIPLEKPGSGGSSPGATSGSGRAGRGLSGPCRPPPPPQARGLLTEIRAVVRTEPFQDGYSLCPGRELGRGKFAVVRKCIKKDSGKEFAAKFMRKRRKGQDCRMEIIHEIAVLELAQDNPWVINLHEVYETASEMILVLEYAAGGEIFDQCVADREEAFKEKDVQRLMRQILEGVHFLHTRDVVHLDLKPQNILLTSESPLGDIKIVDFGLSRILKNSEELREIMGTPEYVAPEILSYDPISMATDMWSIGVLTYVMLTGISPFLGNDKQETFLNISQMNLSYSEEEFDVLSESAVDFIRTLLVKKPEDRATAEECLKHPWLTQSSIQEPSFRMEKALEEANALQEGHSVPEINSDTDKSETEESIVTEELIVVTSYTLGQCRQSEKEKMEQKAISKRFKFEEPLLQEIPGEFIY | soluble
8 | MGSDKIHHHHHHASCSGGDKSKAPVVSTADIENAAEVIKYYNTSLGVLKDMVKEKDVNAVLDYMEQKGKTPALSAIVPPAVVSKDSAIVLNPGNCFNEETRRNLKQNYTGLFQARTEFYANFDTYLSYLKKKDVTNAKKLLDVNYQLSTQMSEYKQNIFDILSPFTEQAELVLLVDNPLKAQIMSVRKMSSTMQSILNLYARKHRMDGPRIDLKVAELTKQLDAAKKLPVVNGHEGEMKSYQAFLSQVETFIKQVKKVREKGEYSDADYDMLTSAFETSII | not soluble
9 | MEHDLNDMMVFLAVVETGSFTLAADRLGMPKANVSRKVSRLEKNLAVTLLERSTRSQHLTEAGRRYLAHCKRIHEELDLATASVCELFHSYTGELKIGASVASGQQVLRPALGKFMRQYPDLKVQLNLVNRRVDFIEEGFDVVIRIGQLNDSMLIAKKLGAINRKIFASPSYLAKQGNPDKVEQLTEHQLLIMNPLNISGNKDLKLPLTSTDHETFTLDCQPRLLVDDFSMLKQAIVDGLGIGVLPDYMCRQEVASGQLVNILPDWGMAKVDIYALYPKHRAKIPKVKAFIDFVSELYGEVL | not soluble
10 | AAAAAAMIVQRVVLNSRPGKNGNPVAENFRMEEVYLPDNINEGQVQVRTLYLSVDPYMRCRMNEDTGTDYITPWQLSQVVDGGGIGIIEESKHTNLTKGDFVTSFYWPWQTKVILDGNSLEKVDPQLVDGHLSYFLGAIGMPGLTSLIGIQEKGHITAGSNKTMVVSGAAGACGSVAGQIGHFLGCSRVVGICGTHEKCILLTSELGFDAAINYKKDNVAEQLRESCPAGVDVYFDNVGGNISDTVISQMNENSHIILCGQISQYNKDVPYPPPLSPAIEAIQKERNITRERFLVLNYKDKFEPGILQLSQWFKEGKLKIKETVINGLENMGAAFQSMMTGGNIGKQIVCISEEISL | soluble
11 | MSVNALYDYKFEPKDKVENFHGMQLLYVYWPDHLLFCAPFALLVQPGMTFSALVDEILKPATAAHPDSAKADFLNAEWLLNDEPFTPKADASLKEQGIDHKSMLTVTTPGLKGMANAGY | soluble
12 | METASKRPKSGAAKKPAAAKARGDGPSYLDGQLLIAMPVMEDERFARSVIYICAHSSEGAMGIIVNRPAGSIDFPELLVQLDIVEKPEQIKLPDHAESMKVLRGGPVETGRGFVLHSSDFFIKDATLPIDDGICLTATVDILKAIAGGTGPKHAILALGYAGWAPGQLENEIQENGWLHCDADADLIFGDDIEEKYDRALHKLGIEPGMLSAEAGHALEHHHHHH | soluble
13 | GPGSRGIDGRQVVRREIKWANMAADWNKTNTKMHAKLKERCRKGIPSRFRGVAWQLLMGSFHQLNSEENNGVYVALRDKKLADKETDVIISRDLARTFPTHVLFQDPGGVGQTFLRNILHAYAGCDPEVGYVQGMGFLVAALSTQMAEGGVLLGPA | not soluble
14 | SLQDFWCSTLVKGVIYGSYSVSEMFPKNFTNCTWTLENPDPTKYSIYLKFSKKDLSCSNFSLLAYQFDHFSHEKIKDLLRKNHSIMQLCNSKNAFVFLQYDKNFIQIRRVFPTNFPGLQKKGEEDQKSFFEFLVLNKVSPSQFGCHVLCTWLESCLKSENGRTESCGIMYTKCTCPQHLGEWGIDDQSLILLNNVVLPLNEQTEGCLTQELQTTQVCNLTREAKRPPKEEFGMMGDHTIKSQRPRSVHEKRVPQEQADAAKFMAQTG | soluble
15 | PLRLALSKLLVKANQPSAALSPLVHLPPMPSRDYLAMRAALAQKQKQNDIALESYQLLTQREPDNARWWLGLAIQQERALTFTAAINSYNEALGKVGISNQSQAFIRDRLTILKQLESAQ | not soluble
16 | MQVTSAEYLSNEESIKKGGNILMEKYNEKYNESIDGNKTLYKSYYESRRESIKNYNPDAKYINEIESIYMMLGEIYPNAPDFMSPHFEGDCSEGE | not soluble
17 | MPEILKVKPTRMELLKLKRRVKLAERGHKLLKEKQDALIMEFFTIYDEALSMRRELIKKIGEAFEALRLAQVEVGSVRLKEIAIGVNPNKEIEVRSRNIMGVRVPLIEVPELKRKPSERGYAFISTSSAVDVAAEKFEEVLELAIRLAEVEESLKRLGKEIEKTKRRVNALEYIIIPRMKNTIKFIEQHLDEMERENFFRLKRIKALLEARESMLEHHHHHH | not soluble
18 | MRHVSNGDPVRVVIVTDGAYGAPAESGDYAQTRRRESTRAAAILGYGAPEFWNLPDRGLEYGERLIQRVLTAMEDHAAELVYAPSWWEVHPDHRVLALAATEAVRRCTRPLRLAMYEVGVPLQPNALLDITDLAERKASAVACFSSQLAQQDYDEQIASLNRFRTYTLPRTVRAAEGYLVLAAEELRNRIPRMMTQKDRLAVRGETGDTAATPLVSVIIPSMDGPRLKEALDSVALQTYPRIEAVVIDAKGEGHTPLPRWCGRFPLRFIPSDISLSRGRAADVGLEHAEGDYLVFLGEDDVFQPGDVASLVAEAARKQGTGLCSHADRRMTVFSGGVVDGSPRTGKPGKPAFLPLHAVLFDRSLAELRCRFDGDANVPEDGDFWDQAMQHVASIHPGACRHGHGLPGGEAGRHTIVRLPPWTSPAPLPPGASLARTPHPTERDSLRRRIQRAGRRIYETPPRGLTDALVRTAYRIWARLSSDSMITNDGKGTLEHHHHHH | not soluble
19 | CKRNVFNPSIPNRTQFIEDPIANLSIPSKDAAIKVTPYTFEGTSGRVYAHVERFFKFNGEYYIIFFRRYIYDTQAGTYAETAPGGNYHLIKIGKSMKYQEVAVNLNQDHPGLYARYTTIAQGNAYIKGSDIYVPINMADLSKGYYQSSSADLSKWTTNNNTALDVAGLGLTKIEVMDTSRITVGKYTYMYNGGGLQFSINRLEDRMRQAAERYETKMVFNEADFNNLHMFDIGMDTDGDNQIDYRMNPTNYIENDTDYSWIGMQTPHQVWIMPFNDGEKDYLIRFVEYCSGMYNINTLKTERDSAKTKADTALTQALALVSNPNSSKAEIAEACYQSIRNNLEYEVRNYFIGKYESVFKTSTPTAYVVPNYALTHYVIEIVDIQ | not soluble
20 | MKKEHLKFVIDSRCFRGSCVTSMSDGIHCDYYGSTLEELKKQENNPFLVAVTRNAIHKRSRIHDKSLCRPFREITEENYYNCMNELPPVRLKHHSFFFGEPYHGSLYMFCFTIGKRFFRGLRPVMTPQAELERQMNEHYHNITFKGKVTKGKAERITSKDKQEIITIPYSFTDKENRERFICNMVTGGNDGGDTCKARKDMTNILLSLRKHHFLYFSGYGRHDDMETLLDEVEEKRYTIITSGCLFQFPPCRDSVSFTGSVKETGENFFYRIYDRELFLHIMHRLRAVKREKTPAEAKAVLPKCKCYE | not soluble
21 | MSLNKKLYIGMVGILSLMMVGCNKSLAKVNDVEITKEQYKKTKAVLSATNNYINGQSLDELEKTLDKKGRNKLENVIISFMVDNELLYQEAKDKGLTPSKSEVDSKYQELEDKMNLNTSYKEKMDKAGVDKDYLKQEISRDLAIDKNKKAFEDRINISDNDMEAYYTSHKKDFNVEEVSASQILISTLDKNKKEVSKDKKEALKKKADNILTKIKNGESFESLAKKYSDDKATGKNGGQLGYFTKDDKNAEFTKEVFKLKKNEVSNVFETSYGYHIVKVTDKRERQKSFNECQSLIRESILNEKYIEHIKKLNEDAKIDREGHHHHHH | soluble
